The target of test [1] is T1, CD36 (His-tagged recombinant human protein, Sino Biological, Life technologies, 70-80 kDa) (human, UniProt P16671 30-439). The experiment in a line: SPR; recombinant 2; kd2 of two-state fit. On the technique in general: Surface plasmon resonance follows binding to a sensor surface in real time, without labels.
For test [2], the target named is T1, CD36 (His-tagged recombinant human …). The test can be described thus: SPR; recombinant 2; kd1 of two-state fit.
For test [3] the target is unchanged. The experiment in a line: SPR; recombinant 1; kd1 of two-state fit.
Test [4] shares this target. The experiment in a line: SPR; recombinant 1; kd2 of two-state fit.
Test [5] shares this target. The test can be described thus: SPR; kd1 of two-state fit.
Test [6] shares this target. The test can be described thus: SPR; kd2 of two-state fit.
For test [7] the target is unchanged. The test can be described thus: SPR; native 1; kd2 of two-state fit.
For test [8] the target is unchanged. The test can be described thus: SPR; native 2; kd1 of two-state fit.
Test [9] shares this target. The experiment in a line: SPR; native 2; kd2 of two-state fit.
Test [10] has the same target. The experiment in a line: SPR; native 1; kd1 of two-state fit.

T1 sequence (P16671 30-439): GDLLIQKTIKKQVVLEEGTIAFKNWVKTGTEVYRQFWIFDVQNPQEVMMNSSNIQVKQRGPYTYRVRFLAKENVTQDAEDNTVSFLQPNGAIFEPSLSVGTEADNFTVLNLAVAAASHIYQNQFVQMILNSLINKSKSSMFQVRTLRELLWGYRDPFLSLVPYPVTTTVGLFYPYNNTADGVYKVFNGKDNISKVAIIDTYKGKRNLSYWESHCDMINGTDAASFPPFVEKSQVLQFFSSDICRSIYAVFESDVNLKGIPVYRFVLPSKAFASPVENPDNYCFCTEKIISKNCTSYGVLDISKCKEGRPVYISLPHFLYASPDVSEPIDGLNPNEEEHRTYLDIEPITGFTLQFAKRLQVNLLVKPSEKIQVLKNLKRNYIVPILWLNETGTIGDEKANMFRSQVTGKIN

B1: recombinant S100A12 (rS100A12) (natural protein)
chain: GPLGSMTKLEEHLEGIVNIFHQYSVRKGHFDTLSKGELKQLLTKELANTIKNIKDKAVIDEIFQGLDANQDEQVDFQEFISLVAIALKAAHYHTHKE
Turning to B1, the koff in [1] turned out to be 0.00068 s⁻¹; in test [2] it was 0.019 s⁻¹; in test [3], 0.0066 s⁻¹; in test [4], 0.00037 s⁻¹.

B2: fluorescein-labeled rS100A12 (natural protein)
chain: GPLGSMTKLEEHLEGIVNIFHQYSVRKGHFDTLSKGELKQLLTKELANTIKNIKDKAVIDEIFQGLDANQDEQVDFQEFISLVAIALKAAHYHTHKE
modifications: fluorescein (NHS-fluorescein, 15 times molar excess; labeled residues not stated)
In the case of B2, the values for the dissociation rate constant (koff) in test [5] and in test [6] were 0.014 s⁻¹ and 0.001 s⁻¹, respectively.

B3: commercially available native human S100A12 protein (nS100A12) (natural protein)
chain: MTKLEEHLEGIVNIFHQYSVRKGHFDTLSKGELKQLLTKELANTIKNIKDKAVIDEIFQGLDANQDEQVDFQEFISLVAIALKAAHYHTHKE
In the case of B3, the dissociation rate constant (koff) in [7] was 0.00051 s⁻¹; in [8], 0.0092 s⁻¹; in test [9], 0.00056 s⁻¹; in [10], 0.0083 s⁻¹.

For orientation: koff means the rate constant with which the complex falls apart.

The record behind these values is paper PMC5241339 (2016).
